According to patent US20250340613A1 (JOINT STOCK COMPANY BIOCAD, published 2025):

T1: hisOX40, Tumor necrosis factor receptor superfamily member 4 (Homo sapiens) aa 26-210 (Homo sapiens, UniProt P43489 26-210)
T1 construct: range 26-210; The tag is put first only because the name begins with His; not shown: His tag as the name implies
T1 sequence (looked up): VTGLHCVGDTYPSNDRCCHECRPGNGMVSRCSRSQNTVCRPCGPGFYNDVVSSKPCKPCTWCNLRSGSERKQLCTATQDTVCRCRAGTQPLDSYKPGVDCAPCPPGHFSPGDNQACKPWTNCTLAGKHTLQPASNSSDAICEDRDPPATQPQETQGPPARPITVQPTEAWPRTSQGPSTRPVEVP

T2: C-Avi-His-TEVs-HSA_hBCMA, Tumor necrosis factor receptor superfamily member 17 (Homo sapiens) aa 1-54 (Homo sapiens, UniProt Q02223 1-54)
T2 construct: range 1-54; not shown: Avi, His, TEV site and HSA parts as the name implies
T2 sequence (looked up): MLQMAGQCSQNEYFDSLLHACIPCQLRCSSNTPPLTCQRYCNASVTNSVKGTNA

T3: hAng2_H6F, Angiopoietin-2 (Homo sapiens) aa 19-496 (Homo sapiens, UniProt O15123 19-496)
T3 construct: also called hAng-H6F; not shown: His and FLAG tags implied by the name 'H6F'
T3 sequence: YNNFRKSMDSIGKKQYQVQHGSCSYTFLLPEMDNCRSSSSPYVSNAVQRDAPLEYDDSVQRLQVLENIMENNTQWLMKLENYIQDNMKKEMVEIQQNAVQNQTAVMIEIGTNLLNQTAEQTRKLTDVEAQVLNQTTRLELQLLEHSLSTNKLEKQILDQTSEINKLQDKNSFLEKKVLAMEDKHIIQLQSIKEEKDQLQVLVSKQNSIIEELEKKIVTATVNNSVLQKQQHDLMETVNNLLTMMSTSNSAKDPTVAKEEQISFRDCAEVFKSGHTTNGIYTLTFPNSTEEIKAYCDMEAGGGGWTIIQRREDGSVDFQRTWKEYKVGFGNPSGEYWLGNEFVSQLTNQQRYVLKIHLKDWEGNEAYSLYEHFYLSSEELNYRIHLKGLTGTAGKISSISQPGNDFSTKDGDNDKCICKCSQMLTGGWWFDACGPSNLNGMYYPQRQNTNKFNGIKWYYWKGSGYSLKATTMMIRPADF

T4: IL5R-His, Interleukin-5 receptor subunit alpha (Homo sapiens) aa 22-342 (Homo sapiens, UniProt Q01344 22-342)
T4 construct: not shown: His tag as the name implies
T4 sequence (looked up): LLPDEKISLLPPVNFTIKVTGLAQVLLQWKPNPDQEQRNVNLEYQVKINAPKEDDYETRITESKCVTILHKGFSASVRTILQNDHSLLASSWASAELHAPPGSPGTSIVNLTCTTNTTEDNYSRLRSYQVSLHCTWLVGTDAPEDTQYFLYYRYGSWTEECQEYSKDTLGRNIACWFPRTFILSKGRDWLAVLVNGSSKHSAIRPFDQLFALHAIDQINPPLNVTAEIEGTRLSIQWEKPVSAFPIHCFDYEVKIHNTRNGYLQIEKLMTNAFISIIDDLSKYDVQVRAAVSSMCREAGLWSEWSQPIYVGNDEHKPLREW

T5: hCD38-Avi, ADP-ribosyl cyclase/cyclic ADP-ribose hydrolase 1 (Homo sapiens) aa 43-300 (Homo sapiens, UniProt P28907 43-300)
T5 construct: range 43-300; not shown: Avi tag as the name implies
T5 sequence (looked up): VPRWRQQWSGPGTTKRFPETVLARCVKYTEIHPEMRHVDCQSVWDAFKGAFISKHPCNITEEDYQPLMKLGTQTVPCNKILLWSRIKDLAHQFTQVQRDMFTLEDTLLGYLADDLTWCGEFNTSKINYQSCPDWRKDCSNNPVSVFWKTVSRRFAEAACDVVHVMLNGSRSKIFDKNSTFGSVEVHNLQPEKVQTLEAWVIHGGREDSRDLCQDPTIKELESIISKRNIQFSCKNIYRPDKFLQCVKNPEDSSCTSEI

B1: 02-004, bivalent bispecific chimeric antibody that specifically binds to PD1 and CD20 (bispecific antibody, human IgG1, kappa, L234A L235A)
heavy 1: QVQLVQSGGGLVQPGGSLRLSCAASGFTFSSYWMYWVRQVPGKGLEWVSAIDTGGGRTYYADSVKGRFAISRVNAKNTMYLQMNSLRAEDTAVYYCARDEGGGTGWGVLKDWPYGLDAWGQGTLVTVSSASTKGPSVFPLAPSSKSTSGGTAALGCLVKDYFPEPVTVSWNSGALTSGVHTFPAVLQSSGLYSLSSVVTVPSSSLGTQTYICNVNHKPSNTKVDKRVEPKSCDKTHTCPPCPAPEAAGGPSVFLFPPKPKDTLYITREPEVTCVVVDVSHEDPEVKFNWYVDGVEVHNAKTKPREEQYNSTYRVVSVLTVLHQDWLNGKEYKCKVSNKALPAPIEKTISKAKGQPREPQVCTLPPSRDELTKNQVSLSCAVKGFYPSDIAVEWESNGQPENNYKTTPPVLDSDGSFFLVSKLTVDKSRWQQGNVFSCSVMHEALHNHYTQKSLSLSPGK
light 1: QPVLTQPLSVSVALGQTARITCGGNNIGSKNVHWYQQKPGQAPVLVIYRDSNRPSGIPERFSGSNSGNTATLTISRAQAGDEADYYCQVWDSSTAVFGTGTKLTVLQRTVAAPSVFIFPPSDEQLKSGTASVVCLLNNFYPREAKVQWKVDNALQSGNSQESVTEQDSKDSTYSLSSTLTLSKADYEKHKVYACEVTHQGLSSPVTKSFNRGEC
heavy 2: not shown
light 2: DIQMTQSPSSLSASVGDRVTITCRASSSVSYMHWYQQKPGKAPKPLIYAPSNLASGVPSRFSGSGSGTDFTLTISSLQPEDFATYYCQQWSFNPPTFGQGTKVEIKQRQVKPEAWLSSGPSPGPGRLQLVCHVSGFYPKPVWVMWMRGEQEQQGTQLGDILPNANWTWYLRATLDVADGEAAGLSCRVKHSSLEGQDIILYWRGSC
notes: Produced in CHO cells
B2: 02-009, bivalent bispecific chimeric antibody that specifically binds to CD20 and CSF1R (bispecific antibody, human IgG1, kappa, L234A L235A)
heavy 1: QVQLVESGGGLVRPGGSLRLSCAASEFTFDDYAMSWVRQAPGKGLEWVSAISWNGGSTNYADSVKGRFTISRDNAKNSLYLQMNSLRAEDTALYYCASTVEVAHRRLYKYLEVWGQGTLVTVSSASTKGPSVFPLAPSSKSTSGGTAALGCLVKDYFPEPVTVSWNSGALTSGVHTFPAVLQSSGLYSLSSVVTVPSSSLGTQTYICNVNHKPSNTKVDKRVEPKSCDKTHTCPPCPAPEAAGGPSVFLFPPKPKDTLYITREPEVTCVVVDVSHEDPEVKFNWYVDGVEVHNAKTKPREEQYNSTYRVVSVLTVLHQDWLNGKEYKCKVSNKALPAPIEKTISKAKGQPREPQVCTLPPSRDELTKNQVSLSCAVKGFYPSDIAVEWESNGQPENNYKTTPPVLDSDGSFFLVSKLTVDKSRWQQGNVFSCSVMHEALHNHYTQKSLSLSPGK
light 1: QAGLTQPPSVSVAPGQTARITCGGNNIGSKSVHWYQQKPGQAPVLVVYGDSDRPSGIPERFSGSNSGNTATLTISRVEAGDEADYYCQVWDISSDHVVFGGGTQLTVLRTVAAPSVFIFPPSDEQLKSGTASVVCLLNNFYPREAKVQWKVDNALQSGNSQESVTEQDSKDSTYSLSSTLTLSKADYEKHKVYACEVTHQGLSSPVTKSFNRGEC
heavy 2: not shown
light 2: B1 light 2
notes: Produced in CHO cells
B3: 02-005, bivalent bispecific chimeric antibody that specifically binds to PD1 and CD20 (bispecific antibody, human IgG1, kappa, L234A L235A)
heavy 1: EVQLVESGGGLVQPGGSLRLSCAASGYTFTSYNMHWVRQAPGKGLEWVGAIYPGNGDTSYNQKFKGRFTISVDKSKNTLYLQMNSLRAEDTAVYYCARVVYYSNSYWYFDVWGQGTLVTVSSASTKGPSVFPLAPSSKSTSGGTAALGCLVKDYFPEPVTVSWNSGALTSGVHTFPAVLQSSGLYSLSSVVTVPSSSLGTQTYICNVNHKPSNTKVDKRVEPKSCDKTHTCPPCPAPEAAGGPSVFLFPPKPKDTLYITREPEVTCVVVDVSHEDPEVKFNWYVDGVEVHNAKTKPREEQYNSTYRVVSVLTVLHQDWLNGKEYKCKVSNKALPAPIEKTISKAKGQPREPQVCTLPPSRDELTKNQVSLSCAVKGFYPSDIAVEWESNGQPENNYKTTPPVLDSDGSFFLVSKLTVDKSRWQQGNVFSCSVMHEALHNHYTQKSLSLSPGK
light 1: DIQMTQSPSSLSASVGDRVTITCRASSSVSYMHWYQQKPGKAPKPLIYAPSNLASGVPSRFSGSGSGTDFTLTISSLQPEDFATYYCQQWSFNPPTFGQGTKVEIKRTVAAPSVFIFPPSDEQLKSGTASVVCLLNNFYPREAKVQWKVDNALQSGNSQESVTEQDSKDSTYSLSSTLTLSKADYEKHKVYACEVTHQGLSSPVTKSFNRGEC
heavy 2: not shown
light 2: QPVLTQPLSVSVALGQTARITCGGNNIGSKNVHWYQQKPGQAPVLVIYRDSNRPSGIPERFSGSNSGNTATLTISRAQAGDEADYYCQVWDSSTAVFGTGTKLTVLQQRQVKPEAWLSSGPSPGPGRLQLVCHVSGFYPKPVWVMWMRGEQEQQGTQLGDILPNANWTWYLRATLDVADGEAAGLSCRVKHSSLEGQDIILYWRGSC
notes: Produced in CHO cells

Biological target: T1, hisOX40, Tumor necrosis factor receptor …
Assay: BLI Octet RED 384; antibody on ProA sensor, antigen 30 ug/ml (1310 nM); response at end of association
Procedure: (§1) Experimental study of nonspecific binding of bispecific chimeric antibodies to non-target antigens was performed on Forte Bio Octert RED 384. Protein A (ProA) biosensors (ForteBio) were immersed into a solution containing antibodies at a concentration of 10 μg/ml for 150 seconds to immobilize same. The baseline was recorded in a 1×KB solution for 30 seconds. The antibody-loaded sensors were then immersed into wells containing non-target antigens at a concentration of 30 μg/ml for 150 seconds. Complex dissociation was then recorded for 30 seconds.
(§2) The reference sensors went through all the steps as the sensors used to record analyte sensograms did, with the exception of the association step—at the association step, the sensors were immersed in a kinetic buffer solution without analyte (the reference sensor signals were measured in parallel with the recording of the main sensograms). The reference signal was subtracted from the signal received on sensors interacting with the analyte during the processing of sensograms.
(§3) Sensograms were processed using ForteBio Octet Data Analysisn 9.0 software. To report no non-specific interaction, the recorded signal level was checked at the end of the association step (the response parameter).

Row | Binder | Signal level (nm)
1 | B1 | 0.0103
2 | B2 | -0.0158
3 | B3 | -0.0169

Biological target: T6, extracellular domain of the human PD-1 protein (hPD1ex-H6F) (Homo sapiens, UniProt Q15116 21-170)
T6 construct: Molecular weight 20.6 kDa; made in CHO cells; also called hPDlex-H6F; not shown: C-terminal His and FLAG tags
Assay: BLI Octet RED 384; antibody on ProA sensor, antigen 30 ug/ml (1456 nM); response at end of association
Procedure: as §1, §2, §3

T6 sequence (Q15116 21-170 limits assumed, form in doubt): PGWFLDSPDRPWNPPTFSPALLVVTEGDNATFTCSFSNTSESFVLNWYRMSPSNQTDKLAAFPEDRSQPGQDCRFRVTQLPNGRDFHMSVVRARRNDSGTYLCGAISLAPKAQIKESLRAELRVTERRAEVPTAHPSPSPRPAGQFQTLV

Row | Signal level (nm) | Binder
4 | 0.35 | B1
5 | -0.0059 | B2
6 | 0.139 | B3

Biological target: T2, C-Avi-His-TEVs-HSA_hBCMA, Tumor …
Assay: BLI Octet RED 384; antibody on ProA sensor, antigen 30 ug/ml (391.2 nM); response at end of association
Procedure: as §1, §2, §3

Row | Binder | Signal level (nm)
7 | B1 | 0.0108
8 | B2 | -0.0154
9 | B3 | 0.0021

Biological target: T7, Her3-H6F, Receptor tyrosine-protein kinase erbB-3 (Homo sapiens) aa 21-643 (Homo sapiens, UniProt P21860 21-643)
T7 construct: not shown: His and FLAG tags implied by the name 'H6F'
Assay: BLI Octet RED 384; antibody on ProA sensor, antigen 30 ug/ml (420.8 nM); response at end of association
Procedure: as §1, §2, §3

T7 sequence (P21860 21-643 limits assumed): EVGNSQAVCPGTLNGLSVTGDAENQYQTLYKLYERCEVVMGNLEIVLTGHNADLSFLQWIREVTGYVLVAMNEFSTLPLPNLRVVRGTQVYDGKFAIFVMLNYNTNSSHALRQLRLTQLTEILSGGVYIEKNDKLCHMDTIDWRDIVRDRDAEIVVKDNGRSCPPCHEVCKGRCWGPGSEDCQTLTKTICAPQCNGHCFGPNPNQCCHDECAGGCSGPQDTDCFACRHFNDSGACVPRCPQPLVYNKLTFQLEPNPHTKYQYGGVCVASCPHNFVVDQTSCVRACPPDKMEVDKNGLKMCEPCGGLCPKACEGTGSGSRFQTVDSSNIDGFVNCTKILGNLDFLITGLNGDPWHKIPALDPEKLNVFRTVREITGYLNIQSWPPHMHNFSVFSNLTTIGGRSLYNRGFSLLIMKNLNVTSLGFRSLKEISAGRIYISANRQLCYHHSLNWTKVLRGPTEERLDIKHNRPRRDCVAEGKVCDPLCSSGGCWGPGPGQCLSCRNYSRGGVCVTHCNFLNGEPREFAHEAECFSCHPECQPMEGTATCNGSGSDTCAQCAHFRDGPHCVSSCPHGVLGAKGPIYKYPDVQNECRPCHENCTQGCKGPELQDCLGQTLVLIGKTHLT

Row | Signal level (nm) | Binder
10 | 0.0217 | B1
11 | -0.0161 | B2
12 | -0.0128 | B3

Biological target: T3, hAng2_H6F, Angiopoietin-2 (Homo …)
Assay: BLI Octet RED 384; antibody on ProA sensor, antigen 30 ug/ml (510.2 nM); response at end of association
Procedure: as §1, §2, §3

Row | Signal level (nm) | Binder
13 | 0.0212 | B1
14 | -0.0114 | B2
15 | -0.0194 | B3

Biological target: T8, Macaca CSF1R_C-His, Macrophage colony-stimulating factor 1 receptor (Macaca mulatta) aa 20-513 (Macaca mulatta)
T8 construct: range 20-513
Assay: BLI Octet RED 384; antibody on ProA sensor, antigen 30 ug/ml (534.8 nM); response at end of association
Procedure: as §1, §2, §3

Row | Signal level (nm) | Binder
16 | 0.0236 | B1
17 | 0.531 | B2
18 | -0.0084 | B3

Biological target: T4, IL5R-His, Interleukin-5 receptor …
Assay: BLI Octet RED 384; antibody on ProA sensor, antigen 30 ug/ml (757.6 nM); response at end of association
Procedure: as §1, §2, §3

Row | Signal level (nm) | Binder
19 | 0.0249 | B1
20 | -0.0064 | B2
21 | 0.0225 | B3

Biological target: T5, hCD38-Avi, ADP-ribosyl cyclase/cyclic …
Assay: BLI Octet RED 384; antibody on ProA sensor, antigen 30 ug/ml (854.7 nM); response at end of association
Procedure: as §1, §2, §3

Row | Signal level (nm) | Binder
22 | 0.004 | B1
23 | -0.0089 | B2
24 | 0.0072 | B3
